Results published in publication PMC8415317 (Genes & Development, 2021).
Positions count from the first letter of the chain named. In names and notes the source's numbering stands. Entries after “also recorded” stand apart in the source; their conditions may differ. Each block holds one molecule with its values, some of them ahead of it.

T1: full-length TOST-1 (TOST-1^FL) (C. elegans, UniProt Q18490 1-142)
T1 sequence (looked up): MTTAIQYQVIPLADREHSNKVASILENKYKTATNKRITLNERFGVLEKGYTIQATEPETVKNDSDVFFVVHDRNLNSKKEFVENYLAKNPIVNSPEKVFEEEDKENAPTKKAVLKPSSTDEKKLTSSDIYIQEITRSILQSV

T2: TOFU-6 (C. elegans, UniProt Q09293 1-367)
T2 sequence (looked up): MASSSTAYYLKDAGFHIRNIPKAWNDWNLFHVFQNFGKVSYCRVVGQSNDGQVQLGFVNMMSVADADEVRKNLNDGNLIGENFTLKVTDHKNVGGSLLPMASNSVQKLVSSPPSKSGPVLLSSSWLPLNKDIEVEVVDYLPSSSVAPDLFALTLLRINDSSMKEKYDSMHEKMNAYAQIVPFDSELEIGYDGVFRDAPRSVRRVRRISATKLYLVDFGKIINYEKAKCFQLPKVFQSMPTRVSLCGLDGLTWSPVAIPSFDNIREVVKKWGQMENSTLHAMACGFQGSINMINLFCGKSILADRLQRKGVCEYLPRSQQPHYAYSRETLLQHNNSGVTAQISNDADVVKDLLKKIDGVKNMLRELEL

T3: PID-1-mVenus-Strep (C. elegans, UniProt Q19541 1-169)
T3 sequence (looked up): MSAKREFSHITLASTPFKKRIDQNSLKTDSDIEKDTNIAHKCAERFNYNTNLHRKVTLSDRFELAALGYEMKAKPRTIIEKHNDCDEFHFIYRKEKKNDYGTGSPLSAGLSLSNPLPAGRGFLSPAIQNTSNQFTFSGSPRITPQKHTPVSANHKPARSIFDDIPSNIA

T4: ERH-2 W87A (C. elegans, UniProt Q20057 1-113, W87A)
T4 sequence (looked up): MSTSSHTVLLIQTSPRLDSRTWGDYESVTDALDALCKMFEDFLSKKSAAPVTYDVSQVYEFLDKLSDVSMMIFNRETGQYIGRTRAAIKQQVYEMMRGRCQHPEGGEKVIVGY

T5: ERH-2 I81A/R83A (C. elegans, UniProt Q20057 1-113, I81A | R83A)
T5 sequence (looked up): T4 sequence (looked up) with I81A, R83A, A87W

T6: TOFU-6 RRM (Caenorhabditis elegans, UniProt Q09293 1-99)
T6 sequence: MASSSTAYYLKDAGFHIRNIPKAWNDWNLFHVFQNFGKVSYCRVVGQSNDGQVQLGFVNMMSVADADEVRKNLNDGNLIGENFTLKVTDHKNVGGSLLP

T7: PID-3/ERH-2 subcomplex (C. elegans, UniProt O76616 1-307; Q20057 1-113)
T7 sequence (looked up) 1: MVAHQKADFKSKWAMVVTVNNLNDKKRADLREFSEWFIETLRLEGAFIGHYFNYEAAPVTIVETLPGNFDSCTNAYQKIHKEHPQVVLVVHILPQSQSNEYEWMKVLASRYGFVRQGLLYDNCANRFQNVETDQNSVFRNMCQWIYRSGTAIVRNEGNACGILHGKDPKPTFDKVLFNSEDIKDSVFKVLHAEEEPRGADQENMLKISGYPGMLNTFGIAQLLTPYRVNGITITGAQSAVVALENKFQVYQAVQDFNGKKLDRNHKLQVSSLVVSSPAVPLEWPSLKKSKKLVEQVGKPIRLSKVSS
T7 sequence (looked up) 2: T4 sequence (looked up) with A87W

B1: ^15N-labeled full-length ERH-2 (natural protein, C. elegans)
chain: GHMASMSTSSHTVLLIQTSPRLDSRTWGDYESVTDALDALCKMFEDFLSKKSAAPVTYDVSQVYEFLDKLSDVSMMIFNRETGQYIGRTRAWIKQQVYEMMRGRCQHPEGGEKVIVGY
B2: PID-3 full-length (natural protein, C. elegans, UniProt O76616 1-307, looked up)
chain: T7 sequence (looked up) 1
B3: PID-3 (I182A and V186A) (protein, UniProt O76616 1-307, looked up, variant I182A V186A)
Protein pid-3: T7 sequence (looked up) 1 with I182A, V186A
B4: PID-3(A220E) (protein, UniProt O76616 1-307, looked up, variant A220E)
Protein pid-3: T7 sequence (looked up) 1 with A220E
B5: full-length ERH-2^FL (natural protein, C. elegans, UniProt Q20057 1-113, looked up)
chain: T4 sequence (looked up) with A87W
B6: ERH-2^ΔC (domain or fragment, C. elegans, UniProt Q20057 1-99, looked up)
chain: MSTSSHTVLLIQTSPRLDSRTWGDYESVTDALDALCKMFEDFLSKKSAAPVTYDVSQVYEFLDKLSDVSMMIFNRETGQYIGRTRAWIKQQVYEMMRGR
B7: TOST-1-mVenus-Strep (natural protein, C. elegans, UniProt Q18490 1-142, looked up)
chain: T1 sequence (looked up)

How the values were obtained:
[1] = target: T1, full-length TOST-1 (TOST-1^FL); assay: NMR titration
SEC-MALS = target: the molecule itself; assay: SEC-MALS
TOFU-6 = target: T2, TOFU-6; assay: SEC-MALS
21U RNA = 21U RNA sequencing; type: in vivo, C. elegans; settings: small RNA-seq, 20°C and 25°C, n = 3, versus wild type
[2] = system: P granules (perinuclear foci); assay: Subcellular localization by confocal microscopy; type: in vivo, C. elegans; settings: GFP-tagged PID-3, 25°C
PID-1-mVenus-Strep = target: T3, PID-1-mVenus-Strep; assay: pull-down
PID-3 full-length = target: B2; assay: SEC
[3] = target: T1, full-length TOST-1 (TOST-1^FL); assay: ITC
ERH-2 W87A = target: T4, ERH-2 W87A; assay: pull-down
ERH-2 I81A/R83A = target: T5, ERH-2 I81A/R83A; assay: pull-down
crystal structure = target: the molecule itself; assay: crystal structure
TOFU-6 RRM = target: T6, TOFU-6 RRM; assay: fluorescence anisotropy
PID-3/ERH-2 subcomplex = target: T7, PID-3/ERH-2 subcomplex; assay: pull-down

Molecule: B1
binding result [1]: binds

Molecule: B2
binding result (SEC-MALS): binds
binding result (TOFU-6): binds

Molecule: B3
21U RNA levels (21U RNA): temperature-sensitive effect on overall 21U RNA levels; also recorded: affect all 21U RNA species

Molecule: B4
subcellular localization [2]: did not form perinuclear foci

Molecule: B5
binding result (PID-1-mVenus-Strep): binds
binding result (PID-3 full-length): binds
Kd [3]: 13 µM

binding result (ERH-2 W87A): binds
binding result (ERH-2 I81A/R83A): binds
Molecule: TFDKVLFNSEDIKDSVFKVLHAEEEPRGADQEN (peptide, UniProt O76616 171-203, looked up) [GST-PID-3^pep]

Molecule: B6
binding result (crystal structure): binds

Molecule: UUUUUUUUUUUUUUUU (ssRNA) [Cy5-U16]
Kd (TOFU-6 RRM): ~60 µM

Molecule: B7
binding result (PID-3/ERH-2 subcomplex): binds
